Measured values from patent US20120214741A1 (BEN GURION UNIVERSITY OF THE NEGEV RESEARCH AND DEVELOPMENT …, published 2012).

Assays:
[1] = target: T1, Rat brain HK-I (hexokinase-I), purified (rat, UniProt P05708 1-918); experiment: detachment of HK-I from rat brain mitochondria by the peptide (competition); HK-I activity in the supernatant
T1 construct: Purified from rat brain; Used in the planar lipid bilayer and isolated-mitochondria assays
T1 sequence (looked up): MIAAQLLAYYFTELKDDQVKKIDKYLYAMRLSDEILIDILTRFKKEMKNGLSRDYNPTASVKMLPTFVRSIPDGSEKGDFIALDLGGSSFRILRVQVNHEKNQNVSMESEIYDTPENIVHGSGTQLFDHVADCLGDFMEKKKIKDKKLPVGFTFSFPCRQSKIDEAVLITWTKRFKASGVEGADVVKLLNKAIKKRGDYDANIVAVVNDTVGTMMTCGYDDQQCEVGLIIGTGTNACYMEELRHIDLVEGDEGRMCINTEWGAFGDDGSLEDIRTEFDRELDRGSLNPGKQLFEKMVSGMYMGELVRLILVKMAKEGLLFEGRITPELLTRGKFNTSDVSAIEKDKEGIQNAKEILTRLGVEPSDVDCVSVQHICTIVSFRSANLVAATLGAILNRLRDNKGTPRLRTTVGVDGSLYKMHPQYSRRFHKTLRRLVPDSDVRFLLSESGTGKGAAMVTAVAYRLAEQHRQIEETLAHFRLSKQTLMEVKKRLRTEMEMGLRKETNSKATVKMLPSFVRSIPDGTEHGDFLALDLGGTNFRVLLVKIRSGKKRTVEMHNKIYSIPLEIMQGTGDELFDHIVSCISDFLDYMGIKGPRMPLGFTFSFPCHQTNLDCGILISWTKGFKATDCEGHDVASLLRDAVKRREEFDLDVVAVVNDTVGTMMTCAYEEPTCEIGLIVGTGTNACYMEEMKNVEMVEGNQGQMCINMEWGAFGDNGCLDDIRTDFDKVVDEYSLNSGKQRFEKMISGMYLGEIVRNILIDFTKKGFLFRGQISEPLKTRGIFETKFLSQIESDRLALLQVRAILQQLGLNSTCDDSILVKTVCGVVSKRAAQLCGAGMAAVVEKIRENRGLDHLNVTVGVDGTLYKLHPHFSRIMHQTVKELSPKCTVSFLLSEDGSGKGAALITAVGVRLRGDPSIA

[2] = target: T1, Rat brain HK-I (hexokinase-I), purified; experiment: purified proteins, VDAC1 reconstituted into a planar lipid bilayer, channel recording
Protocol: Only PLBs with a resistance greater than 100 GΩ were used. Purified VDAC (about 1 ng) was added to the chamber defined as the cis side. […] Sigma Plot 2000 scientific software was used for data analyses. Experiments were performed at 23-25° C.

B1: Peptide LP1 (VDAC1 loop 1 peptide) (peptide)
peptide: WTEYGLTFTEKWNTD
notes: No CPP or Trp zipper in these assays; also called LP1 peptide
- binding result [1]: binds

B2: native mVDAC1 (mouse VDAC1), purified recombinant (other)
chain: MAVPPTYADLGKSARDVFTKGYGFGLIKLDLKTKSENGLEFTSSGSANTETTKVNGSLETKYRWTEYGLTFTEKWNTDNTLGTEITVEDQLARGLKLTFDSSFSPNTGKKNAKIKTGYKREHINLGCDVDFDIAGPSIRGALVLGYEGWLAGYQMNFETSKSRVTQSNFAVGYKTDEFQLHTNVNDGTEFGGSIYQKVNKKLETAVNLAWTAGNSNTRFGIAAKYQVDPDACFSAKVNNSSLIGLGYTQTLKPGIKLTLSALLDGKNVNAGGHKLGLGLEFQA
notes: Extracted from mitochondria of yeast expressing mVDAC1, purified and reconstituted into a planar lipid bilayer; also called native VDAC1
- binding result [2]: binds
